What all share (format): biochemical
In one test the test system is 3′-O-azidomethyl-dCTP. Put plainly: Titration assay, incorporation of 3′-O-azidomethyl-dCTP. The conditions noted are these: for 3′-O-azidomethyl-dCTP incorporation / termination of synthesis: 72° C. (9° N) or 37° C.; for effect of the mutations on 3′-O-azidomethyl-dCTP incorporation: versus parent exo- polymerase. The procedure:
Reactions were also performed in the absence of terminators to ensure that synthesis by each DNA polymerase was sufficient to extend primers without premature termination (“dNTP” lanes). Reactions with Therminator™ (NEB, Inc., Ipswich, Mass.) and 9° N exo-L408P/Y409A/S411T DNA polymerase (SEQ ID NO:6) were incubated at 72° C. for 30 minutes. Reactions with E. coli Polymerase I (pol I) (NEB, Inc., Ipswich, Mass.), Sequenase™, (USB, Inc., Cleveland, Ohio), Mma exo- and Mma exo-L417P/Y418A/S420T were incubated at 37° C. for 30 minutes. Each band corresponds to a DNA fragment terminated by a 3′-azido-dCMP. Using a titration assay as described in Gardner and Jack (2002), the relative 3′-azido-dCTP incorporation efficiency was determined for a series of DNA polymerases.
Incorporation of 3′-O-azidomethyl-dCTP by various DNA polymerases was measured using the titration assay as described in Example 1. For each reaction, a ratio of either 10:1 or 1:1 3′-O-azidomethyl-dCTP:dNTP was used to generate a termination pattern. Each band corresponded to a DNA fragment terminated by a 3′-azido-dCMP. A control reaction lacking terminator (dNTP) which yielded large extension products gave assurance that the DNA polymerase was active, and that termination products resulted from terminator incorporation rather than incomplete polymerization. Reactions with Therminator™ (NEB, Inc., Ipswich, Mass.) and 9° N exo-L408P/Y409A/S411T DNA polymerase were incubated at 72° C. for 30 minutes. Reactions with E. coli Polymerase I (pol I) (NEB, Inc., Ipswich, Mass.), Sequenase™ (USB, Inc., Cleveland, Ohio), Mma exo- and Mma exo-L417P/Y418A/S420T were conducted at 37° C. for 30 mintues. Therminator™ (NEB, Inc., Ipswich, Mass.) DNA polymerase was assayed with a 1:1 ratio of acyCTP as control.

For another test, the system named is modified nucleotide. Put plainly: Screen of DNA polymerase mutants for modified nucleotide incorporation. An outline of the steps: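 Purified 9° N exo- DNA polymerase mutants from a library screened for 3′-modified terminator (3′-azido-ddCTP, 3′-amino-ddCTP) incorporation by chain-terminator titration. Efficiency judged from reaction product size; relative efficiency from amount of terminator needed to give the same product spectrum.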

In the next test the test system is 3′-azido-ddCTP. Put plainly: Titration assay for chain terminator incorporation efficiency (3′-azido-ddCTP). As to conditions: 3′-azido-ddCTP:dNTP 10:1, 2.5:1, 1:2.5; FIG. 1. The procedure:
FIG. 1A-1D show titration assays for chain terminator incorporation efficiency. The relative efficiency of incorporation of modified nucleotide terminators was assessed using the titration assay described in Gardner and Jack Nucleic Acids Research 30: 605-613 (2002). A dye-labeled oligonucleotide primer 5′-AGTGAATTCGAGCTCGGTACCCGGGGATCCTCTAGAGTCGACCTGCAGGC-3′ was annealed to a single-stranded M13mp18 DNA template (Accession No. X02513) and extended by a DNA polymerase in the presence of various ratios of 3′-azido-ddCTP:dNTP (10:1, 2.5:1, 1:2.5) or dNTP (“dN” in the figure) alone in 1×ThermoPol buffer (20 mM Tris-HCl, 10 mM (NH4)2SO4,10 mM KCl, 2 mM MgSO4, 0.1% Triton X-100, pH 8.8 @ 25° C.). […]
In order to determine the extent of 3′-modified nucleotide incorporation by archaeon DNA polymerases, the titration assay described by Gardner and Jack (2002) was used. […] By comparing the amount of terminator required to give the same spectrum of reaction products, the relative efficiency of incorporation of the test compounds with the different polymerases was determined. […]
Once the spectrum of termination products was determined, a comparison of the length, uniformity and clarity of these patterns was used to evaluate incorporation of the terminator. […]
The size distribution of termination products was determined by the relative rates of dNTP and terminator incorporation. […]

The mark [1] stands for this setting: 10:1 or 1:1 3′-O-azidomethyl-dCTP:dNTP, 30 minutes.

B1: Mma exo-L417P/Y418A/S420T: exonuclease minus mutant Mma DNA polymerase, SEQ ID NO:23 (protein, listed as Methanococcus maripaludis)
chain: MESLIDLDYNSDDLCIYLYLINSIIKEKDFKPYFYVNSTDKEQILEFLKDYEKKHKLDSEISKMIENIETVKKIVFDENYQEKELSKVTVKYPNNVKTVREILMEFERLYEYDIPFVRRYLIDNSVIPTSTWDFENNKKIDNKIPDFKTVSFAIAVYCNKEPNPKKDPIIMASFSSKDFNTVVSTKKFDHEKLEYVKDEKELIKRIIEILKEYDIIYTYNGDNFDFPYLKKRAESFGLELKLGKNDEKIKITKGGMNSKSYIPGRVHIDLYPIARRLLNLTKYRLENVTEALFDVKKVDVGHENIPKMWDNLDETLVEYSHQDAYYTQRIGEQFLPLEIMFSRVVNQSLYDINRMSSSQMVEYLLLKNSYKMGVIAPNRPSGKEYQKRIRSSYEGGYVKEPLKGIHEDIVSMDFLSPAPTIIMSHNLSPETIDCTCCSDEENGENEEILGHKFCKKSIGIIPKTLMDLINRRKKVKKVLREKAEKGEFDEEYQILDYEQRSIKVLANSHYGYLAFPMARWYSRDCAEITTHLGRQYIQKTIEEAENFGFKVIYADTDGFYSKWADDKEKLSKYELLEKTREFLKNINNTLPGEMELEFEGYFKRGIFVTKKKYALIDENEKITVKGLEVVRRDWSNVSKNTQKNVLNALLKEGSVENAKKVIQDTIKELKDGKVNNEDLLIHTQLTKRIEDYKTTAPHVEVAKKILKSGNRVNTGDVISYIITSGNKSISERAEILENAKNYDTNYYIENQILPPVIRLMEALGITKDELKDSKKQYTLHHFLK
modifications: (1)..(784) exo_ L417P/Y418A/S420T mutant
Turning to B1, the “3′-O-azidomethyl-dCTP incorporation / termination of synthesis” value in the test with 3′-O-azidomethyl-dCTP (setting [1]) is “incorporated 3′-O-azidomethyl-dCTP efficiently”. Moreover, the “relative 3′-O-azidomethyl-dCTP incorporation efficiency, rank order” value with 3′-O-azidomethyl-dCTP (10:1 or 1:1 3′-O-azidomethyl-dCTP:dNTP, 72° C. or 37° C., 30 minutes, FIG. 8) was “greater than Mma exo-”. For the same molecule, the “effect of the mutations on 3′-O-azidomethyl-dCTP incorporation” value in the test with 3′-O-azidomethyl-dCTP is reported as “increased 3′-O-azidomethyl-dCTP incorporation”. In addition, the “increase of modified nucleotide incorporation” value (shortened to “increase”) in the test with modified nucleotide is recorded as “at least two-fold”.

B2: 9° N exo-L408P/Y409A/S411T: 9° N DNA polymerase mutant, SEQ ID NO:6 (protein)
chain: MILDTDYITENGKPVIRVFKKENGEFKIEYDRTFEPYFYALLKDDSAIEDVKKVTAKRHGTVVKVKRAEKVQKKFLGRPIEVWKLYFNHPQDVPAIRDRIRAHPAVVDIYEYDIPFAKRYLIDKGLIPMEGDEELTMLAFAIATLYHEGEEFGTGPILMISYADGSEARVITWKKIDLPYVDVVSTEKEMIKRFLRVVREKDPDVLITYNGDNFDFAYLKKRCEELGIKFTLGRDGSEPKIQRMGDRFAVEVKGRIHFDLYPVIRRTINLPTYTLEAVYEAVFGKPKEKVYAEEIAQAWESGEGLERVARYSMEDAKVTYELGREFFPMEAQLSRLIGQSLWDVSRSSTGNLVEWFLLRKAYKRNELAPNKPDERELARRRGGYAGGYVKEPERGLWDNIVYLDFRSPAPTIIITHNVSPDTLNREGCKEYDVAPEVGHKFCKDFPGFIPSLLGDLLEERQKIKRKMKATVDPLEKKLLDYRQRAIKILANSFYGYYGYAKARWYCKECAESVTAWGREYIEMVIRELEEKFGFKVLYADTDGLHATIPGADAETVKKKAKEFLKYINPKLPGLLELEYEGFYVRGFFVTKKKYAVIDEEGKITTRGLEIVRRDWSEIAKETQARVLEAILKHGDVEEAVRIVKEVTEKLSKYEVPPEKLVIHEQITRDLRDYKATGPHVAVAKRLAARGVKIRPGTVISYIVLKGSGRIGDRAIPADEFDPTKHRYDAEYYIENQVLPAVERILKAFGYRKEDLRYQKTKQVGLGAWLKVKGKK
modifications: Thermococcus sp. 9 degrees N DNAP mutant
B2: the “3′-O-azidomethyl-dCTP incorporation / termination of synthesis” value in the test with 3′-O-azidomethyl-dCTP (setting [1]) is “incorporated 3′-O-azidomethyl-dCTP efficiently”. Besides, the “effect of the mutations on 3′-O-azidomethyl-dCTP incorporation” value with 3′-O-azidomethyl-dCTP is listed as “increased 3′-O-azidomethyl-dCTP incorporation”. In the test on modified nucleotide, the “increase” value is listed as “at least two-fold”.

B3: 9° N exo-L408S/P410V: 9° N DNA polymerase mutant (protein, UniProt Q56366 1-775, looked up, variant D141A E143A L408S P410V)
DNA polymerase: MILDTDYITENGKPVIRVFKKENGEFKIEYDRTFEPYFYALLKDDSAIEDVKKVTAKRHGTVVKVKRAEKVQKKFLGRPIEVWKLYFNHPQDVPAIRDRIRAHPAVVDIYEYDIPFAKRYLIDKGLIPMEGDEELTMLAFAIATLYHEGEEFGTGPILMISYADGSEARVITWKKIDLPYVDVVSTEKEMIKRFLRVVREKDPDVLITYNGDNFDFAYLKKRCEELGIKFTLGRDGSEPKIQRMGDRFAVEVKGRIHFDLYPVIRRTINLPTYTLEAVYEAVFGKPKEKVYAEEIAQAWESGEGLERVARYSMEDAKVTYELGREFFPMEAQLSRLIGQSLWDVSRSSTGNLVEWFLLRKAYKRNELAPNKPDERELARRRGGYAGGYVKEPERGLWDNIVYLDFRSSYVSIIITHNVSPDTLNREGCKEYDVAPEVGHKFCKDFPGFIPSLLGDLLEERQKIKRKMKATVDPLEKKLLDYRQRAIKILANSFYGYYGYAKARWYCKECAESVTAWGREYIEMVIRELEEKFGFKVLYADTDGLHATIPGADAETVKKKAKEFLKYINPKLPGLLELEYEGFYVRGFFVTKKKYAVIDEEGKITTRGLEIVRRDWSEIAKETQARVLEAILKHGDVEEAVRIVKEVTEKLSKYEVPPEKLVIHEQITRDLRDYKATGPHVAVAKRLAARGVKIRPGTVISYIVLKGSGRIGDRAIPADEFDPTKHRYDAEYYIENQVLPAVERILKAFGYRKEDLRYQKTKQVGLGAWLKVKGKK
With B3, in the test on 3′-azido-ddCTP, the “3′-azido-ddCTP incorporation efficiency relative to wild-type 9° N exo-DNA polymerase” value is “at least 2 fold”. The “increase” value in the test with modified nucleotide is “at least two-fold”.

For the origin of these results see US20110045489A1, “Polymerases for Incorporating Modified Nucleotides” (NEW ENGLAND BIOLABS, INC., priority 2008, published 2011).
